The results in this text go back to paper PMC8364233.

As a reminder, the stoichiometry N is the number of molecules, sites or subunits per partner or assembly.

For series [1], the target named is MBP-LjNIN (551–878) (Lotus japonicus). Put plainly: SEC-MALS. Background: Size exclusion chromatography separates by hydrodynamic size, large species first.
Series [2] has as its target MBP-LjNLP4 (564–976) (Lotus japonicus). The experiment in a line: SEC-MALS.
A further series deals with MBP-LjNIN (551-878) (Lotus japonicus, UniProt Q9S7B1 551-878). Put plainly: EMSA. A general note: Mobility shift assays separate free from complexed probe on a gel.
For a further series, the target named is MBP-LjNLP4 (564-976) (Lotus japonicus, UniProt A0A2Z5V8A6 564-976). Put plainly: EMSA.
For series [3], the target named is MBP-LjNLP4 (564-976);Trx-His-LjNIN (551-878) (Lotus japonicus;Lotus japonicus, UniProt A0A2Z5V8A6;Q9S7B1 564-976;551-878, |). The experiment in a line: EMSA.

Consider “MBP-LjNIN (551–878) (domain or fragment)”, for which, in series [1], the stoichiometry N was 2.
As to “MBP-LjNLP4 (564–976) (domain or fragment)”, in series [2], the stoichiometry N was determined as 2.

B1: LjNIR1pro (dsDNA)
DNA 1: CAAACACGACCCTTTGTCACAACCAAAGGTCCATTGTA
DNA 2: TACAATGGACCTTTGGTTGTGACAAAGGGTCGTGTTTG
Consider B1, for which the binding result in the series with MBP-LjNIN (551-878) and in the series with MBP-LjNLP4 (564-976) was “binds” throughout.

B2: CLE-RS2pro (dsDNA)
DNA 1: TGAGTTCTGACCCTTAAGCCTTGGAAAGGACAGTCATG
DNA 2: CATGACTGTCCTTTCCAAGGCTTAAGGGTCAGAACTCA
Consider B2, for which the binding result with MBP-LjNIN (551-878) and with MBP-LjNLP4 (564-976) was “binds” in each case.

B3: LjNF-YBpro (dsDNA)
DNA 1: TTTACTTGTATCTTTAGAGCTTTCCAAGGGATATTTCA
DNA 2: TGAAATATCCCTTGGAAAGCTCTAAAGATACAAGTAAA
For the molecule B3, the binding result in the series with MBP-LjNIN (551-878) is reported as “binds”; in the series with MBP-LjNLP4 (564-976), “no binding”; in series [3], “binds”.
